Laboratory results published in publication PMC9489475 (Nature structural & molecular biology, 2022).

Target: the molecule itself
Test: cryo-EM structure

B1: band 3 (native, full-length, from human erythrocyte membrane) (natural protein, human (endogenous in red blood cells), UniProt P02730 1-911, looked up)
chain: MEELQDDYEDMMEENLEQEEYEDPDIPESQMEEPAAHDTEATATDYHTTSHPGTHKVYVELQELVMDEKNQELRWMEAARWVQLEENLGENGAWGRPHLSHLTFWSLLELRRVFTKGTVLLDLQETSLAGVANQLLDRFIFEDQIRPQDREELLRALLLKHSHAGELEALGGVKPAVLTRSGDPSQPLLPQHSSLETQLFCEQGDGGTEGHSPSGILEKIPPDSEATLVLVGRADFLEQPVLGFVRLQEAAELEAVELPVPIRFLFVLLGPEAPHIDYTQLGRAAATLMSERVFRIDAYMAQSRGELLHSLEGFLDCSLVLPPTDAPSEQALLSLVPVQRELLRRRYQSSPAKPDSSFYKGLDLNGGPDDPLQQTGQLFGGLVRDIRRRYPYYLSDITDAFSPQVLAAVIFIYFAALSPAITFGGLLGEKTRNQMGVSELLISTAVQGILFALLGAQPLLVVGFSGPLLVFEEAFFSFCETNGLEYIVGRVWIGFWLILLVVLVVAFEGSFLVRFISRYTQEIFSFLISLIFIYETFSKLIKIFQDHPLQKTYNYNVLMVPKPQGPLPNTALLSLVLMAGTFFFAMMLRKFKNSSYFPGKLRRVIGDFGVPISILIMVLVDFFIQDTYTQKLSVPDGFKVSNSSARGWVIHPLGLRSEFPIWMMFASALPALLVFILIFLESQITTLIVSKPERKMVKGSGFHLDLLLVVGMGGVAALFGMPWLSATTVRSVTHANALTVMGKASTPGAAAQIQEVKEQRISGLLVAVLVGLSILMEPILSRIPLAVLFGIFLYMGVTSLSGIQLFDRILLLFKPPKYHPDVPYVKRVKTWRMHLFTGIQIICLAVLWVVKSTPASLALPFVLILTVPLRRVLLPLIFRNVELQCLDADDAKATFDEEEGRDEYDEVAMPV
modifications: N-glycan site N642 (N-acetylglucosamine modelled close to N642)
stoichiometry N: 2
